Measured values reported in patent US20230031670, “METHOD AND KIT FOR DETECTION OF POLYNUCLEOTIDE” (Counci of Scientific & Industrial Research, published 2023).
Substitutions are numbered along the chain they refer to.

Key:
Settings in all cases: tags: GFP; Ni-NTA purified
dFnCas9-GFP [1] = target: T1, dFnCas9-GFP (Francisella novicida, UniProt A0Q5Y3 SEQ:272-1899); assay: MST; low Kd, value in figure only; 30 bp dsDNA, 10 mM MgCl2
T1 chain: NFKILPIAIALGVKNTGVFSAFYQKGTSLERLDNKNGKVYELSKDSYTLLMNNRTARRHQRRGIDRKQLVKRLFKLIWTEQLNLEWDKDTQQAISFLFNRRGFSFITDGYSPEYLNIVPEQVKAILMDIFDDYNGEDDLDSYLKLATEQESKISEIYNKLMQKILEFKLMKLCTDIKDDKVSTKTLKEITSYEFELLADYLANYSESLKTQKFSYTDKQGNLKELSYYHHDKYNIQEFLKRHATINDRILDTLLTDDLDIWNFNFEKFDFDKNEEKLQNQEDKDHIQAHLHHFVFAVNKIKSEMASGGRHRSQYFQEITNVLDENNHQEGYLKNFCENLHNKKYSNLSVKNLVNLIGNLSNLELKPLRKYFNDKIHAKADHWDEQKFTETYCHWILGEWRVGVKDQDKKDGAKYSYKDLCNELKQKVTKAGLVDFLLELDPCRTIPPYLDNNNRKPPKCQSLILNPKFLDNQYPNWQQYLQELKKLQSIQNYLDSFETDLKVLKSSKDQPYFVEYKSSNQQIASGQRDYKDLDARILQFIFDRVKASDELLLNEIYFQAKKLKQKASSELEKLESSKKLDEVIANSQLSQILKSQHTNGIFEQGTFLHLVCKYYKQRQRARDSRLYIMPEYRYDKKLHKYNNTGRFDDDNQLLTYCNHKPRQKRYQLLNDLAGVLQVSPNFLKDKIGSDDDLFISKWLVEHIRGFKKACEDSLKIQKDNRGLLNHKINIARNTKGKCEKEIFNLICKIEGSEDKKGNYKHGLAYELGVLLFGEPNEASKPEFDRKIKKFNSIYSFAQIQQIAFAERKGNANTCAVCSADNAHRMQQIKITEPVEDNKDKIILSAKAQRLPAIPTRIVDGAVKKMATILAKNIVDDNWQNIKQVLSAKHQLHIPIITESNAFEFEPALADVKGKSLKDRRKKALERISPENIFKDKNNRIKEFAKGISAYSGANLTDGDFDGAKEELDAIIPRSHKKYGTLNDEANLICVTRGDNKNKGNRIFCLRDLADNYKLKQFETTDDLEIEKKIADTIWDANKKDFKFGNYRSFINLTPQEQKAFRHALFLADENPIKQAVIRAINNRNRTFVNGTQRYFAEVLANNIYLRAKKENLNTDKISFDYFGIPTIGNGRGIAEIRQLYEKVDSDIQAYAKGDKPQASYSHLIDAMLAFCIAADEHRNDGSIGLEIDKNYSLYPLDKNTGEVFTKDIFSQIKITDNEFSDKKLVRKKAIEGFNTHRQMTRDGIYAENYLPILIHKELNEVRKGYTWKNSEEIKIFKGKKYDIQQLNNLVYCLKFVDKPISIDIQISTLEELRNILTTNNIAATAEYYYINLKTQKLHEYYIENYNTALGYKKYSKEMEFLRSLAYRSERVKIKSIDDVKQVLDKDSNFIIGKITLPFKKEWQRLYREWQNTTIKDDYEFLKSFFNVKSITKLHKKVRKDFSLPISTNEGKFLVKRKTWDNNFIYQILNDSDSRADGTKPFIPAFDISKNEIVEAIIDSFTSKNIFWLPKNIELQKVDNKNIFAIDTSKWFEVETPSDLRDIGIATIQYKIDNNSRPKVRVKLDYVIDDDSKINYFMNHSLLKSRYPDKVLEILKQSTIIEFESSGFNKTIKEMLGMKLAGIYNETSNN
Method: (§1) MST was performed as reported previously [Dong, D. et al. The crystal structure of Cpfl in complex with CRISPR RNA. Nature (2016); Wienken, C. J., Baaske, P., Rothbauer, U., Braun, D. & Duhr, S. Protein-binding assays in biological liquids using microscale thermophoresis. Nat. Commun. (2010)]. Briefly, dFnCAS9-GFP (SEQ ID NO: 3) protein was complexed with PAGE purified respective IVT sgRNAs (purified by 12% Urea-PAGE). The binding affinities of the CAS9 proteins and sgRNA RNP complexes were calculated using Monolith NT. 115 (NanoTemper Technologies GmbH, Munich, Germany). RNP complex (Protein:sgRNA molar ratio,1:1) was reconstituted at 25° C. for 10 mins in reaction buffer (20 mM HEPES, pH7.5, 150 mM KCl, 1 mM DTT, 10 mM MgCl₂). HPLC purified 30 bp dsDNA (IDT) of different genomic loci with varying concentrations (ranging from 0.09 nM to 30,t/M) were incubated with RNP complex at 37° C. temperature for 30 min in reaction buffer. The sample was loaded into NanoTemper standard treated capillaries and measurements were performed at 25° C. using 20% LED power and 40% MST power. Data analyses were done using NanoTemper analysis software.

dFnCas9-GFP [2] = target: T1, dFnCas9-GFP; assay: MST; SEQ ID NO 33 mismatches at 2 and 6; no binding seen
Method: as §1

dFnCas9-GFP [3] = target: T1, dFnCas9-GFP; assay: MST; no binding seen
Method: as §1

B1: HBB WT sgRNA (FnCas9) ; HBB WT target (ssRNA ; dsDNA)
RNA: GUAACGGCAGACUUCUCCUCAGGGUUUCAGUUGCGCCGAAAGGCGCUCUGUAAUCAUUUAAAAGUAUUUUGAACGGACCUCUGUUUGACACGUCUG
DNA 1: GTAACGGCAGACTTCTCCTC
DNA 2: GAGGAGAAGTCTGCCGTTAC
binding result (dFnCas9-GFP [1]): binds

B2: HBB sgRNA with mismatches at PAM-proximal 2 and 6 (FnCas9) ; HBB WT target (ssRNA ; dsDNA)
RNA: B1 RNA with C15A, U19A
DNA 1: GTAACGGCAGACTTCTCCTC
DNA 2: GAGGAGAAGTCTGCCGTTAC
binding result (dFnCas9-GFP [2]): no binding

B3: HBB WT sgRNA (FnCas9) ; HBB mismatched target 1 (ssRNA ; dsDNA)
RNA: B1 RNA
DNA 1: GAAGAAAAGTCTGCCGTTAC
DNA 2: GTAACGGCAGACTTTTCTTC
binding result (dFnCas9-GFP [3]): no binding
